The values below come from patent US20200270343A1 (COMPUGEN, published 2020).

The target in experiment [1] is T1, human VSIG10 flag protein over-expressed in HEK293 cells (stable pool) (human).
T1 chain: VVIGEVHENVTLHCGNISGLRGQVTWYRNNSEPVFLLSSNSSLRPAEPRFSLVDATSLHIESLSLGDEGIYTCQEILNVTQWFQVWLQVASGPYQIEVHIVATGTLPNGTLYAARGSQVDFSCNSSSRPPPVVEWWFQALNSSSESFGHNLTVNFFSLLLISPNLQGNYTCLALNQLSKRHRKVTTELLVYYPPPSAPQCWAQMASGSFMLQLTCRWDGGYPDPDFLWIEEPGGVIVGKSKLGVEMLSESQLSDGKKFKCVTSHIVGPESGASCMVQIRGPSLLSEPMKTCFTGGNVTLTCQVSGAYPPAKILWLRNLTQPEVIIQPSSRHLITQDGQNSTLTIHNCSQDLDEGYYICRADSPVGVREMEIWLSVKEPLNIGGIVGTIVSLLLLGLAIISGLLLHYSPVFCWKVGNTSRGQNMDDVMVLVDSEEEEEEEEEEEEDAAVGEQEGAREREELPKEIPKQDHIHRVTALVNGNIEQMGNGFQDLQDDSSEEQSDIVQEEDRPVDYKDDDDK
Nature of the experiment: FACS titration (4 concentrations) on HEK293 cells over-expressing human VSIG10 Flag; Kd from binding curve. The method, then:
(§1) The mAb binding was evaluated on HEK293 cells over expressing human VSIG10 as well.
(§2) Detection was carried out using Goat Anti mouse-PE secondary Ab.

The target in experiment [2] is human VSIG10 protein endogenously expressed on human cell lines (DAN-G, AsPc1/ASPC-1, DU-145, ZR-75) (human) (UniProt Q8N0Z9). Nature of the experiment: FACS on DAN-G cells after VSIG10 siRNA knock down; 10 ug/ml mAb vs mIgG1 kappa isotype.
For experiment [3] the target is unchanged. Nature of the experiment: FACS titration (4 concentrations) on DU-145 human cell line endogenously expressing VSIG10, vs mIgG1 kappa isotype; Kd from binding curve.
The target is the same in experiment [4]. Nature of the experiment: FACS on AsPc1 cells after VSIG10 siRNA knock down; 10 ug/ml mAb vs mIgG1 kappa isotype.
Experiment [5] has the same target. Nature of the experiment: FACS on DAN-G cells transfected with scrambled (non-target) siRNA; 10 ug/ml mAb vs mIgG1 kappa isotype.
The target is the same in experiment [6]. Nature of the experiment: FACS on AsPc1 cells transfected with scrambled (non-target) siRNA; 10 ug/ml mAb vs mIgG1 kappa isotype.
Experiment [7] deals with T1, human VSIG10 flag protein …. Nature of the experiment: FACS on HEK293 cells over-expressing human VSIG10 Flag vs HEK293 empty vector cells; goat anti mouse PE detection. The method, then:
The performance of the purified mAbs against human VSIG10, in FACS application were tested using HEK293 cells over-expressing human VSIG10 Flag. HEK293 cells transfected with an empty vector were used as a negative control.
Detection was carried out using Goat anti mouse PE secondary Ab.

Experiment [8] addresses human VSIG10 protein endogenously expressed on human cell lines (DAN-G, AsPc1/ASPC-1, DU-145, ZR-75) (human) (UniProt Q8N0Z9). Nature of the experiment: FACS titration (8 concentrations) on ASPC-1 human cell line endogenously expressing VSIG10, vs mIgG1 kappa isotype; Kd from binding curve.
Experiment [9] has as its target T1, human VSIG10 flag protein …. Nature of the experiment: FACS titration (8 concentrations) on HEK293 cells over-expressing human VSIG10 Flag; Kd from binding curve. The method, then:
as §1, §2

B1: AB-577 anti-human VSIG10 mouse monoclonal antibody (antibody, V domains shown)
VH: QVQLQQSGPELVRPGASVKMSCKPSGYRFTDYAISWVKQRTGQGLEWVGEIYPGNGNTYFNEKFKDKATLTADRSSNTAYMQLSSLTSEDSAVYFCARGYANYLPWGQGTLVTVSA
VL: DIQMTQSSSSFSVSLGDRVTITCKASEDIYNRLAWYQQKPGNAPRLLISGATGLETGVPSRISGSGSGRDYTLSITSLQTEDVGTYYCQQYWSTPRTFGGGTKLEIK
notes: clonal supernatant was also tested in WB
For B1, the dissociation constant Kd in [1] was 4.67 nM; in [3] it was 4.62 nM. Besides, the MFI ratio of anti VSIG10 versus isotype control in [2] was 3.54 fold; in [4], 5.2 fold; in experiment [5], 12 fold; in experiment [6], 9.3 fold. For the same molecule, in experiment [7], the “fold change MFI ratio (VSIG10 Flag cells vs empty vector cells)” value was 160 fold.

B2: AB-576 anti-human VSIG10 mouse monoclonal antibody (antibody, V domains shown)
VH: EVQLQQSGPELVKPGASVKMSCKASGYTFTDYYMKWVKQSHGKSLEWIGDINPNNGGTTYNQKFKGKATLTVDKSSNTAYMQFNSLTSEDSAVYFCARFRLRAMDYWGQGTSVTVSS
VL: DIVMTQSPSSLTVTAGEKVTMSCKSSQSLLNSGDRKNYLTWYQQRPGLPPKLLIYWASTRESGVPDRFTGSGSGTDFTLTISSVQSEDLAVYFCQNDYIYPLTFGAGTKLELK
notes: as for B1
Take B2: the MFI ratio of anti VSIG10 versus isotype control amounted to 2.8 fold in [2], 4.4 fold in experiment [4], 9.5 fold in experiment [5] and 9.5 fold in experiment [6]. Also, the equilibrium dissociation constant (Kd) in experiment [8] was determined as 5.85 nM; in experiment [9], 4.14 nM. In addition, the “fold change MFI ratio (VSIG10 Flag cells vs empty vector cells)” value in [7] was 219 fold.
